Kd data for 37 molecules are collected here from paper PMC10786891, “Massively parallel profiling of RNA-targeting CRISPR-Cas13d”.

B1: target 1 MT 5'PFS CAC 3'PFS UCC (mixed)
RNA 1: CACCCGUGCAAAAAUGCAGGGGUCUAAAACUGAGCGGAUAACCUCUCUAUGG
RNA 2: GGGAAUGGAUCCACAUCUACGAAUUCCACCCAUAGAGAGGUUAUCCGCUCAUCCAGAUCGGAAGAGCACACGU
B2: target 1 insU 3' of 12,insU 3' of 6 (mixed)
RNA 1: B1 RNA 1
RNA 2: GGGAAUGGAUCCACAUCUACGAAUUCGUACCAUAGAGAGGUUUAUCCUGCUCACCGAGAUCGGAAGAGCACACGU
B3: target 1 MT 5'PFS GCU 3'PFS UCC (mixed)
RNA 1: B1 RNA 1
RNA 2: B1 RNA 2 with C27G, A28C, C29U
B4: target 1 MT 5'PFS UGU 3'PFS AAU (mixed)
RNA 1: B1 RNA 1
RNA 2: B1 RNA 2 with C27U, A28G, C29U, U52A, C53A, C54U
B5: target 1 insG 3' of 18,insC 3' of 11 (mixed)
RNA 1: B1 RNA 1
RNA 2: GGGAAUGGAUCCACAUCUACGAAUUCGUACCAUAGGAGAGGUCUAUCCGCUCACCGAGAUCGGAAGAGCACACGU
B6: target 1 MT 5'PFS GCU 3'PFS CCG (mixed)
RNA 1: B1 RNA 1
RNA 2: B1 RNA 2 with C27G, A28C, C29U, U52C, C54G
B7: target 1 MT 5'PFS GCC 3'PFS AGG (mixed)
RNA 1: B1 RNA 1
RNA 2: B1 RNA 2 with C27G, A28C, U52A, C53G, C54G
B8: target 1 MT 5'PFS GCU 3'PFS UCA (mixed)
RNA 1: B1 RNA 1
RNA 2: B1 RNA 2 with C27G, A28C, C29U, C54A
B9: target 1 MT 5'PFS GCA 3'PFS AUC (mixed)
RNA 1: B1 RNA 1
RNA 2: B1 RNA 2 with C27G, A28C, C29A, U52A, C53U
B10: target 1 MT 5'PFS GCU 3'PFS CCU (mixed)
RNA 1: B1 RNA 1
RNA 2: B1 RNA 2 with C27G, A28C, C29U, U52C, C54U
B11: target 1 MT 5'PFS CAG 3'PFS UAC (mixed)
RNA 1: B1 RNA 1
RNA 2: B1 RNA 2 with C29G, C53A
B12: target 1 MT 5'PFS GCA 3'PFS AUU (mixed)
RNA 1: B1 RNA 1
RNA 2: B1 RNA 2 with C27G, A28C, C29A, U52A, C53U, C54U
B13: target 1 MT 5'PFS GUG 3'PFS UCU (mixed)
RNA 1: B1 RNA 1
RNA 2: B1 RNA 2 with C27G, A28U, C29G, C54U
B14: target 1 MT 5'PFS CCA 3'PFS UUU (mixed)
RNA 1: B1 RNA 1
RNA 2: B1 RNA 2 with A28C, C29A, C53U, C54U
B15: target 1 MT 5'PFS GCA 3'PFS AUG (mixed)
RNA 1: B1 RNA 1
RNA 2: B1 RNA 2 with C27G, A28C, C29A, U52A, C53U, C54G
B16: target 1 MT 5'PFS AAU 3'PFS UUC (mixed)
RNA 1: B1 RNA 1
RNA 2: B1 RNA 2 with C27A, C29U, C53U
B17: target 1 MT 5'PFS CCU 3'PFS CUA (mixed)
RNA 1: B1 RNA 1
RNA 2: B1 RNA 2 with A28C, C29U, U52C, C53U, C54A
B18: target 1 MT 5'PFS GUC 3'PFS GCG (mixed)
RNA 1: B1 RNA 1
RNA 2: B1 RNA 2 with C27G, A28U, U52G, C54G
B19: target 1 MT 5'PFS GCA 3'PFS AUA (mixed)
RNA 1: B1 RNA 1
RNA 2: B1 RNA 2 with C27G, A28C, C29A, U52A, C53U, C54A
B20: target 1 MT 5'PFS AUA 3'PFS CCG (mixed)
RNA 1: B1 RNA 1
RNA 2: B1 RNA 2 with C27A, A28U, C29A, U52C, C54G
B21: target 1 MT 5'PFS GGU 3'PFS ACU (mixed)
RNA 1: B1 RNA 1
RNA 2: B1 RNA 2 with C27G, A28G, C29U, U52A, C54U
B22: target 1 MT 5'PFS GCC 3'PFS AGA (mixed)
RNA 1: B1 RNA 1
RNA 2: B1 RNA 2 with C27G, A28C, U52A, C53G, C54A
B23: target 1 MT 5'PFS GCU 3'PFS UCU (mixed)
RNA 1: B1 RNA 1
RNA 2: B1 RNA 2 with C27G, A28C, C29U, C54U
B24: target 1 MT 5'PFS GCC 3'PFS AGC (mixed)
RNA 1: B1 RNA 1
RNA 2: B1 RNA 2 with C27G, A28C, U52A, C53G
B25: target 1 MT 5'PFS AAU 3'PFS UUG (mixed)
RNA 1: B1 RNA 1
RNA 2: B1 RNA 2 with C27A, C29U, C53U, C54G
B26: target 1 C2A,U11C (mixed)
RNA 1: B1 RNA 1
RNA 2: B1 RNA 2 with C27G, A28U, C29A, U41C, C50A, U52C, C54G
B27: target 1 MT 5'PFS UAG 3'PFS ACA (mixed)
RNA 1: B1 RNA 1
RNA 2: B1 RNA 2 with C27U, C29G, U52A, C54A
B28: target 1 MT 5'PFS UAG 3'PFS ACC (mixed)
RNA 1: B1 RNA 1
RNA 2: B1 RNA 2 with C27U, C29G, U52A
B29: target 1 MT 5'PFS CAC 3'PFS UCG (mixed)
RNA 1: B1 RNA 1
RNA 2: B1 RNA 2 with C54G
B30: target 1 MT 5'PFS UAG 3'PFS ACG (mixed)
RNA 1: B1 RNA 1
RNA 2: B1 RNA 2 with C27U, C29G, U52A, C54G
B31: target 1 MT 5'PFS GGG 3'PFS CGA (mixed)
RNA 1: B1 RNA 1
RNA 2: B1 RNA 2 with C27G, A28G, C29G, U52C, C53G, C54A
B32: target 1 MT 5'PFS AGA 3'PFS CGG (mixed)
RNA 1: B1 RNA 1
RNA 2: B1 RNA 2 with C27A, A28G, C29A, U52C, C53G, C54G
B33: target 1 MT 5'PFS CAG 3'PFS UAU (mixed)
RNA 1: B1 RNA 1
RNA 2: B1 RNA 2 with C29G, C53A, C54U
B34: target 1 MT 5'PFS GCU 3'PFS UCG (mixed)
RNA 1: B1 RNA 1
RNA 2: B1 RNA 2 with C27G, A28C, C29U, C54G
B35: target 1 MT 5'PFS GCC 3'PFS AGU (mixed)
RNA 1: B1 RNA 1
RNA 2: B1 RNA 2 with C27G, A28C, U52A, C53G, C54U
B36: target 1 MT 5'PFS GUU 3'PFS CAU (mixed)
RNA 1: B1 RNA 1
RNA 2: B1 RNA 2 with C27G, A28U, C29U, U52C, C53A, C54U
B37: target 1 insG 3' of 16,insG 3' of 3 (mixed)
RNA 1: B1 RNA 1
RNA 2: B2 RNA 2 with A38G, G39A, U41G, U48G, G49C, C50U, U51G

Positions count from the first letter of the chain named. Names may count otherwise.

In this data set the target is T1, EsCas13d, nuclease-dead (Eubacterium siraeum, UniProt B0MS50, R295A;H300A;R849A;H854A).
T1 sequence: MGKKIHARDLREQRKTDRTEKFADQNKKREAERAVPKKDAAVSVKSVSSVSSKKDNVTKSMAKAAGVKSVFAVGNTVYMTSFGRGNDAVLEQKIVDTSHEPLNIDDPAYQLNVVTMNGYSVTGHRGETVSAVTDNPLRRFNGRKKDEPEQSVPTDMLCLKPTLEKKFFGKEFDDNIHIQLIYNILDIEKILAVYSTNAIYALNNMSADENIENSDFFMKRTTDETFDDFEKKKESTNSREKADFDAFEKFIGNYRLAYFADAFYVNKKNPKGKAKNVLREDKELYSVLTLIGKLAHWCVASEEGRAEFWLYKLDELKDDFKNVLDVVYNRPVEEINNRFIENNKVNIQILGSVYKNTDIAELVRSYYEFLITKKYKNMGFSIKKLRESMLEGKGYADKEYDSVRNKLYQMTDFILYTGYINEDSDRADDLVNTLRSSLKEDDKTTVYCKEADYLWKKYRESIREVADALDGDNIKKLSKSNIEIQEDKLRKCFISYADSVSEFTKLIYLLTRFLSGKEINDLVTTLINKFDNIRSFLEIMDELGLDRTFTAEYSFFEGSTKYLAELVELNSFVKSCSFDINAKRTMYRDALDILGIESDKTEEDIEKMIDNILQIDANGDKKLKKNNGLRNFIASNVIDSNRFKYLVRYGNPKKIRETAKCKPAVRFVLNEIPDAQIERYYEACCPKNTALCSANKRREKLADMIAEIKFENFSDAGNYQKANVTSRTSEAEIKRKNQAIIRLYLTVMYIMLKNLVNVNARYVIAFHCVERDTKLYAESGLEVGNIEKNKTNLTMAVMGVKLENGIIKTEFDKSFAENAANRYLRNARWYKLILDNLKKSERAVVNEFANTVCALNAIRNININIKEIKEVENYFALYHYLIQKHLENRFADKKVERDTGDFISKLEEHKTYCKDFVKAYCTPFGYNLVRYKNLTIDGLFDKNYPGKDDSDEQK
Description: crRNA (strand 1, pre-loaded); Mg2+; 40 mM Tris-HCl pH 7.5, 150 mM NaCl, 6 mM MgCl2, 1 mM DTT, 0.1% Tween-20, 0.2 mg/ml BSA; 25 C; 10 min per concentration, then washed. The note with it: tags: His6-TwinStrep-SUMO cleaved; N-terminal SNAP kept (SNAP-Surface 488); label: 3' end held by stalled T7 RNA polymerase.
Take B1: the affinity, expressed as Kd, was 20.5 ± 6.5 nM.

B2 showed a Kd of 9.5 ± 0.4 nM. B3 had a dissociation constant Kd of 37.5 ± 13 nM. As for B4, the figure is around 100 nM. As for B5, the figure is 99 ± 19 nM; as for B6, 40 ± 10.5 nM; as for B7, 37 ± 9.5 nM. B8 gave a Kd of 27.5 ± 6.5 nM.

In turn, B9 displayed a Kd of around 28 nM.

Molecule B10 gave an equilibrium dissociation constant (Kd) of around 24.5 nM.

In turn, B11 gave a Kd of 11.9 ± 4 nM.

As for B12, binding was characterised by a dissociation constant (Kd) of 15.5 ± 2.95 nM.

As to B13, the affinity, expressed as Kd, was 10.3 ± 0.7 nM.

B14 gave a Kd of 2.4 ± 0.9 nM. The same measure for B15: 24.5 ± 6 nM; for B16: 20 ± 5.5 nM. As for B17, the figure is 12.5 ± 6 nM; as for B18, 15.5 ± 7.5 nM. For B19, the dissociation constant Kd amounted to 25.5 ± 8.5 nM. As for B20, the figure is 62 ± 26.5 nM; as for B21, around 63 nM; as for B22, 24.5 ± 8 nM.

Consider B23, for which the Kd is 30 ± 7 nM. Take B24: binding was characterised by a dissociation constant (Kd) of 13.1 ± 3.8 nM. The same measure for B25: 72 ± 26 nM. Take B26: the equilibrium dissociation constant (Kd) was found to be 9.5 ± 0.7 nM. The molecule B27 came in with a Kd of 31.5 ± 9.5 nM.

For B28, the Kd worked out at 28.5 ± 6.5 nM.

B29 showed a Kd of 8.65 ± 3.7 nM. As for B30, the figure is 19.1 ± 2.85 nM; as for B31, around 71 nM. The same measure for B32: 41.5 ± 12.5 nM; for B33: 51.5 ± 21 nM; for B34: 39 ± 8 nM.

As for B35, the Kd was 27 ± 7 nM. As for B36, the figure is 22.5 ± 7 nM; as for B37, 16.2 ± 1.1 nM.

Usually Kd stands for the free concentration of one partner at which half of the binding sites on the other are occupied at equilibrium, for simple one-to-one binding.
